Results on five molecules are retold here after patent US20230203138A1 (TRUSTEES OF COLUMBIA UNIVERSITY IN THE CITY OF NEW YORK, published 2023).

The target of assay [1] is SARS-CoV Spike trimer (SARS-CoV, UniProt P59594 14-1190). The assay is described as follows: SPR (FIG. 37D).
Assay [2] has as its target SARS-CoV-2 receptor binding domain (RBD) (SARS-CoV-2, UniProt P0DTC2 319-591). As to the kind of experiment: ELISA (FIG. 10). (ELISA stands for enzyme-linked immunosorbent assay.)

B1: monoclonal antibody 2-4 (antibody, V domains shown)
VH: QVQLVQSGAEVKKPGASVKVSCKASGYTFTGYYMHWVRQAPGQGLEWMGWINPNSGGTNYTQMFQGRVTMTRDTSISTAYMEVSRLRSDDTAVYYCARDRSWAVVYYYMDVWGKGTTVTVSS
VL: QSALTQPPSASGSPGQSVTISCTGTSSDVGGYNYVSWYQQHPGKAPKLMIYEVSKRPSGVPDRFSGSKSGNTASLTVSGLQAEDEADYYCSSYAGSNNLVFGGGTKLTVL
Consider B1, for which the binding result in assay [1] is on record as “no binding”.

B2: monoclonal antibody 2-7 (antibody, V domains shown)
VH: QITLKESGPTLVKPTQTLTLTCTFSGFSLSTSGVGVGWIRQPPGKALEWLALIYWDDDKRYSPSLKSRLTITKDTSKNQVVLTMTNMDPVDTATYYCAHHKIERIFDYWGQGTLVTVSS
VL: QSALAQPASVSGSPGQSITISCTGTSSDVGAYNYVSWYQQHPGKAPKLMIYDVSKRPSGVSNRFSGSKSGNTASLTISGLQAEDEADYYCSSYTTSSTVFGGGTKLTVL
Regarding B2, the binding result in assay [2] is given as “binds”.

B3: monoclonal antibody 4-20 (antibody, V domains shown)
VH: QVQLLQSGAEVKKPGASVKVSCKASGYSFTSYYMHWVRQAPGQGLEWMGIINPSGGGTTYAQKFQGRVTMTRDTSTSTVYMELSSLRSEDTAVYYCARPGGGSYQEFDYWGQGTLVTVSS
VL: DIQMTQSPSSLSASVGDRVTITCRASQSISSYLNWYQQKPGKAPKLLISAASSLQSGVPSRFSGSGSGTDFTLTISSLQPEDFATYYCQQSYNTLQVTFGGGTKVEIK
Take B3: the binding result in assay [2] is “binds”.

B4: monoclonal antibody 1-20 (antibody, V domains shown)
VH: EVQLVESGGGLIQPGGSLRLSCAASGLTVSSNYMSWVRQAPGKGLEWVSVIYSGGSTFYADSVKGRFTISRDNSKNTLYLQMNSLRAEDTAVYYCARDLFYYGMDVWGQGTTVTVSS
VL: DIQLTQSPSFLSASVGDRVTITCRASQGISSYLAWYQQKPGKAPKLLIYAASTLQSGVPSRFSGSGSGTEFTLTISSLQPEDFATYYCQQLNSYPCFGPGTKVDIK
As for B4, in assay [2], the binding result is “binds”.

B5: monoclonal antibody 2-30 (antibody, V domains shown)
VH: QVQLVESGGGVVQPGRSLRLSCAASGFTFSSYTMHWVRQAPGKGLEWVAAISYDGNNKYYADSVKGRFTISRDNSKNTLYLQMNSLRAEDTAVYYCARSILYGGGMDVWGQGTTVTVSS
VL: DIQLTQSPSSLSASVGDRVTITCRASQGISSYLAWYQQKPGQAPKLLIYAASTLQSGVPSRFSGSGSGTDFTLTISSLQPEDFATYYCQQLNSYPLTFGGGTKVEIK
As for B5, the binding result in assay [2] is reported as “binds”.
